Experiments:
ACVR2A = ACVR2A (Homo sapiens (Human), UniProt P27037); assay: SPR steady state, receptor-Fc on chip, monomer analyte
ACVR1B = molecular target: T1, ACVR1B (Homo sapiens (Human), UniProt P36896); assay: as above
T1 chain: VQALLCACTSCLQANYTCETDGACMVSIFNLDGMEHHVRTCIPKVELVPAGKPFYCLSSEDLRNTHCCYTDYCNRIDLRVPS

Sequence of ACVR2A (P27037 25-118): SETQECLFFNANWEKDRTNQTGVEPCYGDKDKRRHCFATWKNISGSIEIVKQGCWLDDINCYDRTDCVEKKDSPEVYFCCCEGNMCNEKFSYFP

- Kd (ACVR2A): > 10 µM
- Kd (ACVR1B): > 10 µM
B1: DLK1 (protein)
chain: VANSCTPNPCENDGVCTDIGGDFRCRCPAGFIDKTCSRPVTNCASSPCQNGGTCLQHTQVSYECLCKPEFTGLTCVKK

— PMC12216052 (2025)
